Data from US20070065890A1, “Method for promoting formation of facultative heterochromatin” (priority 2005, published 2007).

B1: G4-SirT1: SirT1 fused to the Gal4 DNA binding domain (protein)
chain: MKLLSSIEQACDICRLKKLKCSKEKPKCAKCLKNNWECRYSPKTKRSPLTRAHLTEVESRLERLEQLFLLIFPREDLDMILKMDSLQDIKALLTGLFVQDNVNKDAVTDRLASVETDMPLTLRQHRISATSSSEESSNKGQRQLTVSMADEAALALQPGGSPSAAGADREAASSPAGEPLRKRPRRDGPGLERSPGEPGGAAPEREVPAAARGCPGAAAAALWREAEAEAAAAGGEQEAQATAAAGEGDNGPGLQGPSREPPLADNLYDEDDDDEGEEEEEAAAAAIGYRDNLLFGDEIITNGFHSCESDEEDRASHASSSDWTPRPRIGPYTFVQQHLMIGTDPRTILKDLLPETIPPPELDDMTLWQIVINILSEPPKRKKRKDINTIEDAVKLLQECKKIIVLTGAGVSVSCGIPDFRSRDGIYARLAVDFPDLPDPQAMFDIEYFRKDPRPFFKFAKEIYPGQFQPSLCHKFIALSDKEGKLLRNYTQNIDTLEQVAGIQRIIQCHGSFATASCLICKYKVDCEAVRGDIFNQVVPRCPRCPADEPLAIMKPEIVFFGENLPEQFHRAMKYDKDEVDLLIVIGSSLKVRPVALIPSSIPHEVPQILINREPLPHLHFDVELLGDCDVIINELCHRLGGEYAKLCCNPVKLSEITEKPPRTQKELAYLSELPPTPLHVSEDSSSPERTSPPDSSVIVTLLDQAAKSNDDLDVSESKGCMEEKPQEVQTSRNVESIAEQMENPDLKNVGSSTGEKNERTSVAGTVRKCWPNRVAKEQISRRLDGNQYLFLPPNRYIFHGAEVYSDSEDDVLSSSSCGSNSDSGTCQSPSLEEPMEDESEIEEFYNGLEDEPDVPERAGGAGFGTDGDDQEAINEAISVKQEVTDMNYPSNKS
B2: SirT2: Recombinant SirT2 expressed in E. coli (protein)
chain: MAEPDPSHPLETQAGKVQEAQDSDSDSEGGAAGGEADMDFLRNLFSQTLSLGSQKERLLDELTLEGVARYMQSERCRRVICLVGAGISTSAGIPDFRSPSTGLYDNLEKYHLPYPEAIFEISYFKKHPEPFFALAKELYPGQFKPTICHYFMRLLKDKGLLLRCYTQNIDTLERIAGLEQEDLVEAHGTFYTSHCVSASCRHEYPLSWMKEKIFSEVTPKCEDCQSLVKPDIVFFGESLPARFFSCMQSDFLKVDLLLVMGTSLQVQPFASLISKAPLSTPRLLINKEKAGQSDPFLGMIMGLGGGMDFDSKKAYRDVAWLGECDQGCLALAELLGWKKELEDLVRREHASIDAQSGAGVPNPSTSASPKKSPPPAKDEARTTEREKPQ
B3: SirT3: Recombinant SirT3 expressed from baculovirus in SF9 cells (protein)
chain: MAFWGWRAAAALRLWGRVVERVEAGGGVGPFQACGCRLVLGGRDDVSAGLRGSHGARGEPLDPARPLQRPPRPEVPRAFRRQPRAAAPSFFFSSIKGGRRSISFSVGASSVVGSGGSSDKGKLSLQDVAELIRARACQRVVVMVGAGISTPSGIPDFRSPGSGLYSNLQQYDLPYPEAIFELPFFFHNPKPFFTLAKELYPGNYKPNVTHYFLRLLHDKGLLLRLYTQNIDGLERVSGIPASKLVEAHGTFASATCTVCQRPFPGEDIRADVMADRVPRCPVCTGVVKPDIVFFGEPLPQRFLLHVVDFPMADLLLILGTSLEVEPFASLTEAVRSSVPRLLINRDLVGPLAWHPRSRDVAQLGDVVHGVESLVELLGWTEEMRDLVQRETGKLDGPDK

Experiments:
[1] = system: pTK-Luc reporter under the control of Gal4; assay: Transient transfection Gal4 pTK-Luc reporter assay; format: cell-based; conditions: 293F cells, luciferase normalized to β-galactosidase
Protocol: Transfections. All transfections were carried out in 293F cells using the indicated plasmids and POLYFECT (QIAGEN, Valencia, Calif.) following the protocol provided by the manufacturer. Nuclear and cytoplasmic fractions were isolated by a modified protocol (Dignam, et al. (1983) Methods Enzymol. 101:582-598). Fractions were analyzed by immunoprecipitation with the indicated antibodies followed by immunoblotting, or by luciferase activity (TD20e luminometer; Turner BioSystems, Sunnyvale, Calif.) . In the case of transient transfections, a β-gal reporter was used as a transfection control and the levels of luciferase activity were normalized to those of β-galactosidase, shown as a percentage. dsRNAi was ordered as a custom SMARTPOOL against SirT1 (Dharmacon, Lafayette, Colo.) and was transfected into U2OS cells using RNAFECT (QIAGEN, Valencia, Calif.). After incubation for 48 hours, cells were harvested and lysed with RIPA buffer (50 mM Tris-HCl, pH 7.4, 1% NP40, 0.25% Na-deoxycholate, 150 mM NaCl, 1 mM EDTA, 1 mM PMSF, 1 mM leupeptin, 1 mM aprotinin, and 1 mM pepstatin). Western blots were performed using the indicated antibodies. Total H4 was visualized by both western and COOMASSIE blue staining.
Plasmids. […]

recombinant human H1b = biological target: T1, recombinant human H1b (Homo sapiens, UniProt P10412); assay: In vitro deacetylation of p300-acetylated recombinant H1b by SirT proteins; format: biochemical; conditions: equal NAD+-exchange units measured using acetylated BSA as substrate
T1 construct: Human histone H1b and H1° were inserted into HA-Pet30c; HA (N); made in house; host or cells: E. coli BL21 (DE3)
T1 sequence (P10412 2-219): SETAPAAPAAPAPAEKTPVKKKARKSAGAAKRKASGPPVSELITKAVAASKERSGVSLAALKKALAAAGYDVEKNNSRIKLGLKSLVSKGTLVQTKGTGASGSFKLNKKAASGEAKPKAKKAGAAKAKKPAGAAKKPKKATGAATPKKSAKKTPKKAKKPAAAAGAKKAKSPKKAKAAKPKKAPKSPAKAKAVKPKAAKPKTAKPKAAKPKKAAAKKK
Protocol: Detection of H1 acetylation was performed by using 4 μg of histone H1 (Upstate Biotechnology, Inc., Lake Placid, N.Y.) as an acetylated substrate for SirT1 in the NER. Deacetylation was determined by first performing a deacetylation assay using 20 and 40 μg of H1 and 6 nmol of SirT1. H1 was then isolated in the supernatant of chilled 5% perchloric acid, TCA precipitated (Albig, et al. (1998) FEBS Lett. 435:245-250), and resuspended in buffer C containing 100 mM KCl. Deacetylated H1 was then used in a subsequent NER. In vitro acetylation of H1 or recombinant H1b expressed in E. coli was carried out by incubating 10 μg H1 with 2 nmol baculovirus-generated p300 in the presence of 0.875 μCi [H^3]-Ac-CoA (Amersham, Piscataway, N.J.) in HAT buffer (75 mM Tris-HCl [pH 8.8], 135 mM NaCl). Deacetylation was carried out with the specified enzyme as above using 1 μg of the labeled Hi. […] Counts were then determined by liquid scintillation (PERKINELMER, Wellesley, Mass.) . […] In vivo H1 acetylation was analyzed by treating 293 cells for 18 hours in media containing 5 mM nicotinamide. H1 was purified as described (Albig, et al. (1998) supra) and analyzed in the NER. […]
SirT1 activity on histone H1 was directly tested in vitro. […] The same result was observed using recombinant human H1b; however, specificity was also scored in this assay using different SirT proteins.

Molecule	repression of reporter expression [1]	H1b deacetylation (recombinant human H1b)
B1	approximately 100%	–
B2	–	failed to significantly deacetylate H1b
B3	–	failed to significantly deacetylate H1b
